Results taken from publication PMC8699845.

What was measured:
[1] = biological target: WIF domain of human WIF1 protein (human) (UniProt Q9Y5W5); test: SPR; BIACORE X; WIF1 or WIF domain amine-coupled to CM5 chip, rhShh injected at 20 µL/min; 20 mM Tris, 150 mM NaCl, 5 mM EDTA, 0.005% Tween 20, 100 µM CHAPS, pH 7.4; 1:1 Langmuir fit
[2] = biological target: Recombinant human Wnt Inhibitory Factor 1 (human) (UniProt Q9Y5W5); test: as above
[3] = biological target: dually lipidated recombinant human sonic hedgehog (human)

UniProt Q9Y5W5, sequence (Q9Y5W5 29-379): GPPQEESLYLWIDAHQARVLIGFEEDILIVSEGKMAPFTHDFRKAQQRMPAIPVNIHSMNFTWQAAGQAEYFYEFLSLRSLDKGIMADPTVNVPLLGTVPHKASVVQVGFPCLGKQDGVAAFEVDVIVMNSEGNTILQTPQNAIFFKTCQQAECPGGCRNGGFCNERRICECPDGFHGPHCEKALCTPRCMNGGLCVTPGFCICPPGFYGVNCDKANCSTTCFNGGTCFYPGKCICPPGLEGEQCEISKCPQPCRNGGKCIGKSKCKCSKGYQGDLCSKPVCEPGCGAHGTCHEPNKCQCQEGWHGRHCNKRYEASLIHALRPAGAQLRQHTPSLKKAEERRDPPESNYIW

Row | Kd [1] [nM] | koff [1] [s⁻¹] | kon [1] [M⁻¹ s⁻¹] | Kd [2] [nM] | koff [2] [s⁻¹] | kon [2] [M⁻¹ s⁻¹] | Gli luciferase reporter in Gli Reporter-NIH3T3 cells; inhibition of the signaling activity of 0.2 nM rhShh preincubated with 0-50 nM WIF domain; EC50 [3] [nM] | Molecule
1 | 1.18 | 5.03e-05 | 42600 | 2.06 | 0.000141 | 68500 |  | dually lipidated recombinant human sonic hedgehog (ligand)
2 |  |  |  |  |  |  | 2.75 | WIF domain of human WIF1 protein (domain or fragment) LWIDAHQARVLIGFEEDILIVSEGKMAPFTHDFRKAQQRMPAIPVNIHSMNFTWQAAGQAEYFYEFLSLRSLDKGIMADPTVNVPLLGTVPHKASVVQVGFPCLGKQDGVAAFEVDVIVMNSEGNTILQTPQNAIFFKTC
